Measured values reported in patent US8609089B2, “Compositions of PD-1 antagonists and methods of use” (Amplimmune, Inc., priority 2008, dated 2013).

Experiments:
[1] = system: Treg and CD4+ T cells expressing high PD-1; assay: T cell analysis in CT26 tumor-bearing mice (Treg, PD-1+/CD4+ T cells); type: in vivo, Balb/C mice
Description: On Day 9, mice were injected with 100 mg/kg of CTX, IP. […] Two naïve mice and 4 mice from other groups were removed from the study on Day 11 (2 days post CTX) and Day 16 (7 days post CTX) for T cell analysis. […] Mice implanted with tumor cells intended to have more PD-1+/CD4+ T cells in the draining LN compared with naïve mice.

[2] = system: CT26 colorectal tumor cells; assay: CT26 subcutaneous established tumor model, tumor eradication; type: in vivo, Balb/C mice
Description: Mouse colorectal tumor cell line, CT26, was obtained from ATCC. A master cell bank at Passage 4 was generated following ATCC guidelines. […] One vial of tumor cells was thawed from the cryopreserved stocks and grown for two passages prior to inoculation.
CT26 cells were split at 1:5 dilution with 30 mL complete medium (RPMI+10% FBS, 2 mM L-Glu, and 1×P/S) for two days culture or at 1:10 dilution with 30 ml complete medium for 3 days culture.
CT26 cells were harvested by aspirating medium, rinsing the flask with 5 mL PBS, adding 5 mL trypsin, incubating at 37° C. for 2 min, and then neutralizing with 10 mL complete medium. After centrifuge at 600×g (˜1000 rpm) for 5 min, media was aspirated and the cell pellet was resuspended by pipetting with 10 ml plain RPMI. This wash step was repeated for three times.
Cell number and viability of the inoculated cells were analyzed by trypan blue dye staining with proper dilution (e.g. 1:5 dilution, 10 μL cells+40 μL trypan blue) and confirmed by NOVA cell count during the last wash step.
CT26 cells were diluted to 6.7×10^5 cells/mL for initial inoculation with plain RPMI and stored on ice. Typically each mouse was inoculated with 150 μL (1×10^5 cells).
CTX solution was reconstituted by 1×PBS to 4 mg/mL. […]
The same dose was given 2 time a week for 4 weeks, total 8 doses. […] Tumor volume was calculated as following: Tumor volume=π(Dshort)^2×(Dlong)/6=˜0.52×(Dshort)^2×(Dlong)
Mice were euthanized and taken off the study if the tumor volume reached 2000 mm^3 or if there were skin ulcers and infections at the tumor inoculation site.
On day 11 post tumor challenge, mice received a single dose of cyclophosphamide (100 mg/kg) and started treatment with anti-PD-1 antibody (250 ug, Clone G4, Hirano F. et al., 2005 Cancer Research) which was administered 3 times per week for four weeks.
On day 11 post tumor challenge, mice received 100 mg/kg of cyclophosphamide. Anti-CTLA4 (an anti-mouse CTLA4 from hamster hybridoma—ATCC deposit UC10-4F10-11) treatment was started 1 day later, on day 12. Mice were treated with 100 ug of anti-CTLA4, 2 doses per week, for 4 weeks.

AB1-HA tumor = settings: CTX treatment at Day 9; van der Most et al. 2009; cited from earlier work
SP-1 cells = assay: Metastatic prostate tumor model, survival; type: in vivo, B10.D2 mice; settings: CTX 50 mg/kg Day 5, 12, 19; B7-DC-Ig 5 mg/kg Day 6, 13, 20; SP-1 cells intravenously
Description: SP-1 cells were isolated from mouse lungs that were metastasized from TRAMP prostate tumor cell injection. B10.D2 mice were first injected with 3×10^5 SP-1 cells via tail vein injection. On Day 5, 12 and 19, mice were injected with 50 mg/kg of CTX where was indicated. […] Here, “NT” refers to “not treated”.
The CTX mice received 3 doses of CTX, 50 mg/kg, on Day 5, 12 and 19.

[3] = target: T1, CHO cell line constitutively expressing PD-1 (Homo sapiens, UniProt Q15116); assay: Flow cytometry binding to CHO cells expressing PD-1; settings: various concentrations
T1 construct: expressed in transfected cells; host or cells: CHO
T1 sequence (Q15116 25-288): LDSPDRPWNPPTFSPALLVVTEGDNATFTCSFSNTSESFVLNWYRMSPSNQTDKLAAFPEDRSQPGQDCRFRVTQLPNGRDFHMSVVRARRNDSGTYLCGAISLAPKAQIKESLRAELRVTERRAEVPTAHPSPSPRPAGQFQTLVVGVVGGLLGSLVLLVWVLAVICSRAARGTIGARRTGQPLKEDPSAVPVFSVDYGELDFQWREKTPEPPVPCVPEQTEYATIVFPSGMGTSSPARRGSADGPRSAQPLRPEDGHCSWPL
Description: (§1) Binding was analyzed by flow cytometry.

[4] = system: parent CHO cells that do not express PD-1; assay: Flow cytometry binding to parent CHO cells; settings: various concentrations
Description: as §1

PD-1 = target: T2, PD-1 (Homo sapiens, UniProt Q15116); assay: Competition with labeled B7-H1-Ig for binding to PD-1 on CHO cells; settings: unlabeled competitor at various concentrations, then B7-H1-Ig-APC; MFI
T2 construct: expressed in transfected cells; host or cells: CHO
T2 sequence (Q15116 25-288): as above
Description: B7-H1-Ig was first conjugated with allophycocyanin (APC).

Row | Molecule | Treg in the spleen vs vehicle-injected tumor-bearing mice ([1]; Day 11, 2 days post CTX 100 mg/kg IP) | outcome of mice, CTX alone group ([2]; CTX 100 mg/kg day 10) | cure rate (AB1-HA tumor) [%] | mice survived on Day 100 (SP-1 cells) [%] | binding to CHO.PD-1 cells (median fluorescence intensity) [3] | binding to untransfected CHO cells (median fluorescence intensity) [4] | CD4+ T cells expressing high PD-1 ([1]; Day 16, 7 days post CTX and 6 days post B7-DC-Ig 100 ug, draining LN) | tumor eradication ([2]; cyclophosphamide 100 mg/kg day 9, 30 μg B7-DC-Ig from Day 10, 2 doses per week, 8 doses) [%] | tumor eradication ([2]; cyclophosphamide 100 mg/kg day 9, 100 μg B7-DC-Ig from Day 10, 2 doses per week, 8 doses) [%] | mice that eradicated the tumors ([2]; cyclophosphamide 100 mg/kg day 9, 300 μg B7-DC-Ig from Day 10, 2 doses per week, 8 doses) [%] | competition with B7-H1 for binding to PD-1 (PD-1)
1 | O=P1(N(CCCl)CCCl)NCCCO1 (stereo not drawn) [CTX, cyclophosphamide, reference compound] | significantly lower | died as a result of tumor growth or were euthanized | 75 | 17 | – | – | – | – | – | – | –
2 | B7-DC-Ig-APC: B7-DC-Ig conjugated with allophycocyanin (APC) (conjugate) LFTVTAPKEVYTVDVGSSVSLECDFDRRECTELEGIRASLQKVENDTSLQSERATLLEEQLPLGKALFHIPSVQVRDSGQYRCLVICGAAWDYKYLTVKVKASYMRIDTRILEVPGTGEVQLTCQARGYPLAEVSWQNVSVPANTSHIRTPEGLYQVTSVLRLKPQPSRNFSCMFWNAHMKELTSAIIDPLSRMEPKVPRTWEPRGPTIKPCPPCKCPAPNLLGGPSVFIFPPKIKDVLMISLSPIVTCVVVDVSEDDPDVQISWFVNNVEVHTAQTQTHREDYNSTLRVVSALPIQHQDWMSGKEFKCKVNNKDLPAPIERTISKPKGSVRAPQVYVLPPPEEEMTKKQVTLTCMVTDFMPEDIYVEWTNNGKTELNYKNTEPVLDSDGSYFMYSKLRVEKKNWVERNSYSCSVVHEGLHNHHTTKSFSRTPGK | – | – | – | – | binds to CHO.PD-1 cells | not untransfected CHO cells | – | – | – | – | –
3 | B7-DC-Ig: homodimer having 2 copies of SEQ ID NO: 10 linked by a disulfide linkage; mouse B7-DC ECD fused to Fc of mouse IgG2a (protein, homodimer via disulfide; Murine B7-DC-Ig fusion protein without signal sequence, mouse B7-DC ECD fused to Fc of mouse IgG2a) LFTVTAPKEVYTVDVGSSVSLECDFDRRECTELEGIRASLQKVENDTSLQSERATLLEEQLPLGKALFHIPSVQVRDSGQYRCLVICGAAWDYKYLTVKVKASYMRIDTRILEVPGTGEVQLTCQARGYPLAEVSWQNVSVPANTSHIRTPEGLYQVTSVLRLKPQPSRNFSCMFWNAHMKELTSAIIDPLSRMEPKVPRTWEPRGPTIKPCPPCKCPAPNLLGGPSVFIFPPKIKDVLMISLSPIVTCVVVDVSEDDPDVQISWFVNNVEVHTAQTQTHREDYNSTLRVVSALPIQHQDWMSGKEFKCKVNNKDLPAPIERTISKPKGSVRAPQVYVLPPPEEEMTKKQVTLTCMVTDFMPEDIYVEWTNNGKTELNYKNTEPVLDSDGSYFMYSKLRVEKKNWVERNSYSCSVVHEGLHNHHTTKSFSRTPGK | – | – | – | 17 | – | – | significantly lowered the CD4+ T cells expressing high PD-1 | 10 | 40 | 70 | competes with B7-H1 for binding to PD-1
